The experiment concerns the target T1, HLA-A*02:01 (human).
T1 construct: Peptide-receptive HLA-A*02:01 monomer obtained by UV cleavage of a UV-sensitive ligand; captured on streptavidin plates; also called peptide-receptive MHC molecules; MHC class I
Nature of the experiment: UV-ligand exchange, anti-b2m ELISA; grade of peptide exchange yield (>10% = +; >20% = ++; >50 = +++; >75% = ++++). An excerpt: Candidate peptides for T cell based therapies according to the present invention were further tested for their MHC binding capacity (affinity). The individual peptide-MHC complexes were produced by UV-ligand exchange, where a UV-sensitive peptide is cleaved upon UV-irradiation, and exchanged with the peptide of interest as analyzed. Only peptide candidates that can effectively bind and stabilize the peptide-receptive MHC molecules prevent dissociation of the MHC complexes. To determine the yield of the exchange reaction, an ELISA was performed based on the detection of the light chain (β2m) of stabilized MHC complexes. The assay was performed as generally described in Rodenko et al. (Rodenko et al., 2006).
96 well MAXISorp plates (NUNC) were coated over night with 2 ug/ml streptavidin in PBS at room temperature, washed 4× and blocked for 1 h at 37° C. in 2% BSA containing blocking buffer. Refolded HLA-A*02:01/MLA-001 monomers served as standards, covering the range of 15-500 ng/ml. Peptide-MHC monomers of the UV-exchange reaction were diluted 100-fold in blocking buffer. Samples were incubated for 1 h at 37° C., washed four times, incubated with 2 ug/ml HRP conjugated anti-β2m for 1 h at 37° C., washed again and detected with TMB solution that is stopped with […]. Absorption was measured at 450 nm. Candidate peptides that show a high exchange yield (preferably higher than 50%, most preferred higher than 75%) are generally preferred for a generation and production of antibodies or fragments thereof, and/or T cell receptors or fragments thereof, as they show sufficient avidity to the MHC molecules and prevent dissociation of the MHC complexes.
(In general: In an ELISA, binding on a coated surface is turned into a signal by an enzyme label.)
On to STASAITPSV, for which the peptide exchange yield lay within 20 to 50%.
For MLFENMGAYTV the value was above 75%.
TLNDGVVVQV: the peptide exchange yield was above 75%.

Values taken from patent US20200155602A1 (IMMATICS BIOTECHNOLOGIES, published 2020).
